Reference: the nanobody polyreactivity screen of Harvey et al. (2022)

Assay: yeast display, Sf9 membrane polyspecificity reagent, FACS + sequencing; frameworks hold sequencing errors
How it was run: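 A nanobody's polyreactivity label depends on the gate it was sorted from. Yeast display cells were stained with 10% biotinylated, detergent-solubilized Sf9 membrane reagent for 1 hour at 4 °C, enriched on streptavidin microbeads and sorted by FACS. The low and high (top ~1%) gates were set on anti-HA fluorescence for expression and streptavidin fluorescence for reagent binding.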

| Sequence | polyreactivity (PSR sort gate) |
| --- | --- |
| QVQLVESGGGLVQAGGSLRLSCAATGSIDSNALGWYRQAPGKERELVADITSGTPTYADSVKGRFTITRDNAKNTVYLQMNSLKPEDTAVYYCAADIPPWGGDYWGQGTQVTVSS | low polyreactivity |
| QGQLVESGGGLVQAGGSLRLSCAASGRIFVPYGMGWYRQAPGKERELVAAITTGGSTNYADSVKGRFTISRDNAKNTVYLQMNSLKPEDTAVYYCAVDWYPQLIYSFNSELEYWGQGTQVTVSS | low polyreactivity |
| QVQLVESGGGLVQAGGRLRLSCAASGRTFSNYAKGWYRQAPGKEREFVAGIRYNGGSTYYADSVKGRFTISRDNAKNTVYLQMKSLKPEDTAVYYCAARYSRSMDYWGQGTQVTVSS | high polyreactivity |
| QVQLVESGGGLVQAGGSLRLSCAASGSTFWANAMGWSRPAPGKERELVAAITSTGITYYADSVKGRFTISRDNAKNTVYLQMNSLIPEDTAVYYCAAEPPDEFWTDLLVDYFLGYEYWGPGTQVTVSS | low polyreactivity |
| QVQLVESGGGLVQAGGRLRLSCAASGNTFGINAMGWYRQAPGKEREFVAAITFGGGRTYYADSVKGRFTISRDNAKNTVYFQMNSLKPEDTAVYFCAARAPVVTYTWSSPRWWFDYWGQGTQVTVSS | high polyreactivity |
| QVQLVESGGGLVQAGGSLRLRCAASGFIFRHNAMGWYRQAPGKAREFVAAISISGGSTYYADSVKGRFTISRDNAKNTVYLQMNSLKPEDTAVYYCNARSMGNTYLLYDYWGQGTQVTFSS | low polyreactivity |
| QVQLVESGGGLVQAGGSLRLSCAASGRIFRGYAMGWYRQAPGKERELVATITARGGNTYYADSVKGRFTISRDNAKNTVYLQMNSLKPEETAVYYCAATFYRRYVDLGYWGQGTQVTVSS | high polyreactivity |
| QVQLVESGGGLVQAGGSLRLSCADSGIISIFNVIGWYRQAPGKERELVASITGRGGSTFYADSVKGRFTISRDNAKNTVYLQMNILKPEDTAVYYCATDTGYTYPVTGLYDYWGQGTQVTVSS | low polyreactivity |
| QVQLVESGGGLVQAGGSLRLSCAASGSIIYLYAMGWYRQAPGKEREFVAAITWRGASTYYADSVKGRFTISRYNAKNTVYLQMNSLKPEDTAVYYCAAKLPRVYGYGFDYWGQGTQVTVSS | low polyreactivity |
| QVQLVESGGGLVQAGGSLRLSCAASGRIFTGYAMGWYRQAPGKERELVAAISSRGGSTYYADSVKGRFTISRDNAKNTVYLQMNSLKPEDTAVYYCNAYQWRHRYTMYYWGQGTQVTVSS | high polyreactivity |
| QVQLVESGGGIVQAGGSLRLSCAASGGIFLGNAMVWYRQAPGKERELVAGITWSGGRTYYADSVKGRFTISRDNAKNTVYLQMNSLKPEDTAVYYCNKDTPGTRFYGIYSYDYWGQGTQVTVSS | low polyreactivity |
| QVQLVESGGGLVQAGGSLRLSCAASGITFGVNAMGGSRQAPGKERELVAAITQRGDSTYYADSVKGRFTISRDTAKNTLDLQMNSLKPEDTAVYYCNADYAWRFPVTYDYWGQGTQVTVSS | low polyreactivity |
| QVQLVESGGGLGQAGGSLRLSCAASGSIFAGNAMGWYRQAPRKERELVAAISRRGGSTYYADSVKGRFTISRDNAKNTVYLQMNSLKPEDTAVYYCNALLRYAYHAAYGYWGQGTQVTVSS | high polyreactivity |
| QVQLVESGGGLVQAGGSLRLSCAASGRTLYIYAMGWYRQAPGKERELVAAIRRIGGRTYYADSVKGRFTISRDNAKNTVYLQMNSLKPEDTAVYYCNARSYRLRFSEMDYWGQGTQVTVSS | high polyreactivity |
| QDQLVESGGGLVQAGGSLRLSCAASGNIFVTNAMGWYRQAPGKERELVAAITYSGGTTYYADSVKGRFTISRDNAKNTVYLQMNSLKPEDTAVYYCAADFATWTYYPYRLDEFDYWGQGTQVTVSS | low polyreactivity |
| QVQLVESGGGLVQAGGSLRLSCAASGRTFEGNAMGWYRQAPGKERELVAAITSGGRTNYADSVKGRFTISRDNAKNTVYLQMNSLKPEDTAVYYCAAGQVSVGTIAKYDYWGQGTQVTVSS | low polyreactivity |
| QVQLVESGGCLVQAGGSLRLSCAASGSISYSYSMGWYRQAPGKERELVATISWGGGRTYYADSVKGRFTISRDNAKNTVYLQMNSLKPEDTAVYYFATAYRFRYGFAKRYDYWGQGTQVTVSS | low polyreactivity |
| QVQLVESGGGLVQAGGSLRLSCADSGSTLRRNAMGWYRQAPGKERELVAAISRTGASTYYADSVKGRFTISRDNAKNTVYLQMNSLKPEDTAVYYCAARANYIFFGMDYWGQGTQVTVSS | high polyreactivity |
| QVHLVESGGGLVQAGGSLRLSCAGSGRTFRYYAMGWYGQAPGKERELVAAISVRTGSTSDADSVKGRFTISRDNAKNTVYLQMNSLNPEDTAVYYCAATSRYFQPPGYGGGRIGYGYWGQGTQVTVSS | high polyreactivity |
| QVQLVESGGGVVQAGGSLRLSCAASGSTFYPYALGWYRQAPGKERELVAGITVIDGSTYYADSVKGRFTISRDNAKNTVYLQMNSLKPEDTAVYYCAVDAPNQVQEYGYWGQGTQVTVSS | low polyreactivity |
| QVQLVESGGGLVQAGGSLRLSCAASGFTFLAYAMGWYRQAPGKERELVAAISRSGGRTYYADSVKGRFTISRDNAKNTVYLQMNSLNPEDTAVYYCAAPPRANLFDYWGQGTQVTVSS | high polyreactivity |
